Measurements from patent US20220154221, “SITE SPECIFIC RECOMBINASE INTEGRASE VARIANTS AND USES THEREOF IN GENE EDITING IN EUKARYOTIC CELLS” (RAMOT AT TEL-AVIV UNIVERSITY LTD., published 2022).

T1: HK022 Int E174K (Bacteriophage HK022, UniProt P16407 SEQ:1-357, E174K)
T1 sequence: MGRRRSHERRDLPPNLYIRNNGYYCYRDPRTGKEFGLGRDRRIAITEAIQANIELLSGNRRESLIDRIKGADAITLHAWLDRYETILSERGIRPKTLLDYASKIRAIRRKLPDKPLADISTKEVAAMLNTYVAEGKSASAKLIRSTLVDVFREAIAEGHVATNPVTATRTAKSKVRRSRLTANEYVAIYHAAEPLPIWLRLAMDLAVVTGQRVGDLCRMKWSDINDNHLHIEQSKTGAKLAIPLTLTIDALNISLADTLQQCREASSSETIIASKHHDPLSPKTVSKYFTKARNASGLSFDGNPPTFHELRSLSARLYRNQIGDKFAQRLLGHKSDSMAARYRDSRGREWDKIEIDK

T2: HK022 integrase (oInt / wild type) (Bacteriophage HK022, UniProt P16407 SEQ:1-357)
T2 sequence: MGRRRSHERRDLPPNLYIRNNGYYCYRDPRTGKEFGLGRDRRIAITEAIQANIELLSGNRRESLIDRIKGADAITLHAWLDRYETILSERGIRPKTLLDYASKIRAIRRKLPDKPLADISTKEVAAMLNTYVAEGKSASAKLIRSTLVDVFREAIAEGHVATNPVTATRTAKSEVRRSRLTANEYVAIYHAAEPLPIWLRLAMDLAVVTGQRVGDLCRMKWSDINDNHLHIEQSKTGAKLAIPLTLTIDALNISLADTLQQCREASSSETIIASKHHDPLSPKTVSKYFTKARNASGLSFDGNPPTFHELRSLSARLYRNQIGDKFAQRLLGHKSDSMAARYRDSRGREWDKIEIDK

T3: HK022 Int D278K (Bacteriophage HK022, UniProt P16407 SEQ:1-357, D278K)
T3 sequence: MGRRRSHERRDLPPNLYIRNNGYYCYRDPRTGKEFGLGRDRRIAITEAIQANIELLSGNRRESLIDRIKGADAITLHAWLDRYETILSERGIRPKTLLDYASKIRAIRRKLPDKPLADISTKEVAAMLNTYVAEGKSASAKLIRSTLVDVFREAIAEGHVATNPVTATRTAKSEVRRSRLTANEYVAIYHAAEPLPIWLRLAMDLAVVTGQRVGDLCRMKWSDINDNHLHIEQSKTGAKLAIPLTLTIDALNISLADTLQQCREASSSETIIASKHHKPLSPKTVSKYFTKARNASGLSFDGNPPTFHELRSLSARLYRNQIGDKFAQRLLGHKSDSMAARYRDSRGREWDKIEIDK

T4: HK022 Int E174K+I43F+R319G (Bacteriophage HK022, UniProt P16407 SEQ:1-357, I43F,E174K,R319G)
T4 sequence: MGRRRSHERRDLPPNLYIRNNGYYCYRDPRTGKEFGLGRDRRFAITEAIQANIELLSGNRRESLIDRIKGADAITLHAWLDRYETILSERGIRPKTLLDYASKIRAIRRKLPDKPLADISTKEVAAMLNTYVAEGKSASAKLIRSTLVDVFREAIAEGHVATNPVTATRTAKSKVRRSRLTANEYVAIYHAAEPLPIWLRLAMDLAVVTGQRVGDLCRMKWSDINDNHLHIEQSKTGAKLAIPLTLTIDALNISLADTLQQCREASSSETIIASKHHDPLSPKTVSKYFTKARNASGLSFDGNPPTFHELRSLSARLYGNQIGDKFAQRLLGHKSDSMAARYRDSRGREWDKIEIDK

T5: HK022 Int E174K+D278K (Bacteriophage HK022, UniProt P16407 SEQ:1-357, E174K,D278K)
T5 sequence: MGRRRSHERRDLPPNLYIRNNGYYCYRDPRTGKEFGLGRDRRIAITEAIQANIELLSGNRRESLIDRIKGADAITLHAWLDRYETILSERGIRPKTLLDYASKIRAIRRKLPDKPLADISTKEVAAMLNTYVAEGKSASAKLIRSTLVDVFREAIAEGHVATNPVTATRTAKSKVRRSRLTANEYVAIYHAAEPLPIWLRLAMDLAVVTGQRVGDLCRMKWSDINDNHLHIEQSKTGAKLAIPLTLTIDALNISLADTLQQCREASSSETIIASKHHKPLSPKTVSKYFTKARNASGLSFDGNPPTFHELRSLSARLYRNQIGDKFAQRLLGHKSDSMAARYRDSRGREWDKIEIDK

B1: wild-type attB (dsDNA)
DNA 1: GCACTTTAGGTGAAAAAGGTT
DNA 2: AACCTTTTTCACCTAAAGTGC
B2: DMD2 attB (dsDNA)
DNA 1: TTGCTTAATGGAGAAAAGGTA
DNA 2: TACCTTTTCTCCATTAAGCAA
B3: DMD3 attB (dsDNA)
DNA 1: GTGCTTTAAAAAGAAAAGGGG
DNA 2: CCCCTTTTCTTTTTAAAGCAC

Assays:
[1] = target: T1, HK022 Int E174K; test: cell_activity; trans attB x attP, HEK293T (Example 8 quotes 147%); settings: chain copies: 4
Description: (§1) To examine the activity of these Int variants, an analytic assay was performed of a transient trans integrative recombination reaction using the wild type attB and attP sites in human HEK293T cells in which each att site is located on a different substrate plasmid (FIG. 2B). The first substrate (pMK221) carries the attP site downstream to the cytomegalovirus promoter (CMV). The second plasmid (pMK223) carries the attB downstream to the open reading frame (ORF) of the green fluorescent protein (GFP) and upstream to a transcription terminator (Stop).
(§2) A productive attB×attP reaction forms a dimer plasmid encoding CMV-promoted GFP expression (FIG. 2B). HEK293T cells were co-transfected with these two substrate plasmids, with or without an Int-expressing plasmid (the oInt pNA979, or one of its Int mutant derivatives). 48 hours post-transfection GFP expressing cells were analyzed by fluorescence-activated cell sorting (FACS).

[2] = target: T2, HK022 integrase (oInt / wild type); test: cell_activity; trans attB x attP integration, HEK293T, reference; settings: tags: human codon-optimised (oInt) in human cells; native gene in E. coli; chain copies: 4
Description: as §1, §2

[3] = target: T3, HK022 Int D278K; test: cell_activity; trans attB x attP, HEK293T; settings: chain copies: 4
Description: as §1, §2

[4] = target: T4, HK022 Int E174K+I43F+R319G; test: cell_activity; trans attB x attP, HEK293T; settings: chain copies: 4
Description: as §1, §2

[5] = target: T5, HK022 Int E174K+D278K; test: cell_activity; genomic RMCE at DMD2/DMD3, HEK293; settings: chain copies: 4
Description: (§3) Plasmid transformations were performed by electroporation (Sambrook, J., et al (1989) Cold Spring Harbor, N.Y.). Plasmids and oligomers are listed in Tables 1,3,5 and 2,4,6 respectively. Human embryonic kidney cells HEK293, 293T, and 293 Flp-In were cultured in Dulbecco's modified Eagle's medium (DMEM). For transient transfection 293T cells (˜6×10⁵) were plated in a 6 well plate and 24 h later treated with 3 μg of the proper plasmid DNA using PureFection Transfection Reagent (System Biosciences, Mountain View, Calif., USA). For the model chromosomal assay transfection, 293 Flp-In cells (˜6×10⁵) were plated in a 6 well plate and 24 h later treated with 5.5 μg of the proper plasmid DNA using Mirus Transfection Reagent (Mirus, Wis., USA). For the CTNS and DMD chromosomal assay transfection, HEK293 cells (˜6×10⁵) were plated in a 6 well plate and 24 h later treated with 3 μg of the proper plasmid DNA using PureFection Transfection Reagent.
(§4) In the DMD model, DMD2 and DMD3 “attB” sites were chosen which are 23 Kb apart located in introns 43 and 44 respectively that flank exon 44 (FIG. 12B). The relevant deletion mutation located in exon 44 is described (GM23715, Coriell institute). A GFP promoter trap whose incoming plasmid carried a splicing acceptor (SA), a ribosomal skipping site (2A) and the ORF of EGFP with a polyA sequence (FIG. 12A) was used. All are flanked with the two relevant “attP”s 1.4 Kb apart. […] The correct sequence of all PCR products was confirmed by NGS.

[6] = target: T4, HK022 Int E174K+I43F+R319G; test: cell_activity; genomic RMCE at DMD2/DMD3, HEK293; settings: chain copies: 4
Description: as §3, §4

Row | Binder | recombination activity (GFP+ cells, relative to oInt) [1] | integrative recombination activity [2] | integration activity [3] | integration activity [4] | activity [5] [% cells] | activity [6] [% cells]
1 | B1 | 1.54 fold of oInt | 1 fold of oInt | 1.48 fold of oInt | 2.3 fold of oInt | – | –
2 | B2 | – | – | – | – | 0.4 | 0.4
3 | B3 | – | – | – | – | 0.4 | 0.4
